In data set [1] the test system is human CD34+ stem cells. Conditions: cited from earlier work.
For data set [2], the system named is MDS patients. Conditions: cited from earlier work.
Data set [3] deals with wild-type TH22 cells. Description: secreted IL-22 from in vitro polarized wild-type TH22 cells. The format is cell-based, mouse. Conditions: for secreted IL-22: pifithrin-α, p-nitro 1 μM, Nutlin-3 100 nM. The protocol:
Single-cell suspensions of mouse spleens were prepared by pressing tissue through a 70-μm cell strainer followed by red blood cell lysis using PharmLyse. Total splenic CD4^+ T cells were isolated using CD4 T cell isolation kit (Miltenyi Biotec). Enriched CD4^+ T cells were then incubated with fluorochrome-conjugated antibodies to CD4, CD8, CD25, CD62L, and CD44 to purify naïve CD4^+ T cells using fluorescence activated cell sorting (FACS). In the presence of 1 μg/mL plate-bound anti-CD3ε and soluble 1 μg/mL anti-CD28, T cell polarizations were carried out in IMDM supplemented with 10% FBS, 2 mM L-glutamine, […] penicillin-streptomycin, HEPES (pH 7.2-7.6), non-essential amino acids, 100 μM β-mercaptoethanol (BME), and sodium pyruvate as follows—TH1 (20 ng/mL IL-12, 10 μg/mL anti-IL-4), TH2 (20 ng/mL IL-4, 10 μg/mL anti-IFN-γ), TH17 (30 ng/mL IL-6, 20 ng/mL IL-23, 20 ng/mL IL-1β, 10 μg/mL anti-IL-4, 10 μg/mL anti-IFN-γ), Treg cells (1 ng/mL TGF-β, 10 μg/mL anti-IL-4, 10 μg/mL anti-IFN-γ), and TH22 (30 ng/mL IL-6, 20 ng/mL IL-23, 20 ng/mL IL-1β, 10 μg/mL anti-IL-4, 10 μg/mL anti-IFN-γ, 400 nM FICZ). Pifithrin-α, p-Nitro and Nutlin-3a were purchased from Santa Cruz Biotechnology and Tocris Biosciences, respectively.
IL-22 in human samples was quantified using either Human IL-22 Quantikine ELISA Kit (D2200, R&D Systems) or SMCTM Human IL-22 High Sensitivity Immunoassay Kit (EMD Millipore, 03-0162-00) according to manufacturers' instructions. The SMC assay was read on a SMC Pro (EMD Millipore) instrument. The lower limit of quantification (LLOQ) of this immunoassay is 0.1 pg/mL. IL-22 in mouse samples was quantified using ELISA MAX™ Deluxe Set Mouse IL-22 (BioLegend, 436304). The LLOQ of this immunoassay is 3.9 pg/mL. S100A8 in human samples was quantified using Human S100A8 DuoSet ELISA (DY4570, R&D Systems).

The subject of data set [4] is Lin- BM cells. Description: in vitro erythropoiesis assay (erythroid differentiation of Lin- BM cells). Conditions: for p53 expression: culture treated with rIL-22 vs PBS. The class given is cell-based, mouse. The method, then:
Whole BM cells were labeled with biotin-conjugated lineage antibodies (cocktail of anti-CD3ε, anti-CD11b, anti-CD45R/B220, anti-Gr1, anti-CD5, and anti-TER-119) (BD Pharmingen) and purified using anti-biotin beads and negative selection on the AutoMACS Pro (Miltenyi). Purified cells were then seeded in fibronectin-coated (2 μg/cm^2) tissue-culture treated polystyrene wells (CORNING® BIOCOAT™ Cellware) at a cell density of 10^5/mL. Erythroid differentiation was carried out according to modified published protocols. The erythropoietic medium was IMDM supplemented with erythropoietin at 10 U/mL, 10 ng/mL stem cell factor SCF, PeproTech), 10 μM Dexamethasone (Sigma-Aldrich), 15% FBS, 1% detoxified BSA (StemCell Technologies), 200 μg/mL holotransferrin (Sigma-Aldrich), […] human insulin (Sigma-Aldrich), 2 mM L-glutamine, 0.1 mM β-mercaptoethanol, and penicillin-streptomycin. After 48 h, the medium was replaced by IMDM medium containing 20% FBS, 2 mM L-glutamine, 0.1 mM β-mercaptoethanol, and penicillin-streptomycin. 50% of the culture media was replaced after 48 h and cell density was maintained at 0.5×10^6/mL. Total culture period for the assay was 6 days. Recombinant mouse IL-22 (PeproTech/Cell Signaling) was used where indicated.

The target of data set [5] is T1, IL-22 (Mus musculus, UniProt Q9JJY9).
T1 sequence (Q9JJY9 34-179): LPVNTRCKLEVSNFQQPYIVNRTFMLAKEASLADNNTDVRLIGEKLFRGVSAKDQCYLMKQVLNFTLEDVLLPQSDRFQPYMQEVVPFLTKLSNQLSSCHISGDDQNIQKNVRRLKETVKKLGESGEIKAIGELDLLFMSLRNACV
To be noted: cited from earlier work.

Data set [6] deals with T1, IL-22. Nature of the data set: anti-IL-22 antibody in naive, non-anemic wt C57BL/6J mice. The class given is in vivo. Set-up: endogenous in cells; host or cells: living mice (wt C57BL/6J; Riok2f/+Vav1cre and Riok2+/+Vav1cre). Conditions: healthy, anti-IL-22 vs isotype. The method, then: (§1) Monoclonal anti-IL-22 (Clone IL22JOP) blocking antibody and isotype control IgG2a (Clone eBR2a) were purchased from Thermo Fisher Scientific. Mice were administered anti-IL-22 (50 μg/mouse) or isotype intraperitoneally every 48 h until the conclusion of the experiment. For recombinant IL-22 treatment, mice were injected with recombinant IL-22 (500 ng/mouse; PeproTech) intraperitoneally every 24 h until the conclusion of the experiment.
(§2) Mice were bled via the submandibular facial vein to collect blood in EDTA-coated tubes (BD MICROTAINER™ Capillary Blood Collector, BD 365974). Complete blood counts were obtained using the HemaVet CBC Analyzer (Drew Scientific) or Advia 120 (Siemens Inc.,) instruments.
(§3) Monoclonal anti-IL-22 (Clone IL22JOP) blocking antibody and isotype control IgG2aκ (Clone eBR2a) were purchased from Thermo Fisher Scientific. Mice were administered anti-IL-22 (50 μg/mouse) or isotype intraperitoneally every 48 h until the conclusion of the experiment. For recombinant IL-22 treatment, mice were injected with recombinant IL-22 (500 ng/mouse; PeproTech) intraperitoneally every 24 h until the conclusion of the experiment. Mice were administered these reagents at least five times before inducing PhZ-mediated anemia.

Data set [7] addresses T1, IL-22. Description: IL-22 neutralization with anti-IL-22 antibody in mice undergoing PhZ-induced stress erythropoiesis. The class given is in vivo. Further details: endogenous in cells; host or cells: living mice (wt C57BL/6J; Riok2f/+Vav1cre and Riok2+/+Vav1cre). To be noted: for frequency of apoptotic erythroid progenitors/precursors: viable BM cells. The method, then:
(§4) Phenylhydrazine (PhZ) was purchased from Sigma and injected intraperitoneally on 2 consecutive days (days 0 and 1) at a dose of 25 mg/kg. Peripheral blood was collected 3-4 days before the start of treatment and at day 4, 7 and 11. PhZ treatment experiments were carried out in 8-16 week-old mice.
as §1, §2
(§5) Phenylhydrazine (PhZ) was purchased from Sigma and injected intraperitoneally on 2 consecutive days (days 0 and 1) at the dose of 25 mg/kg (sublethal model) or 35 mg/kg (lethal model). Peripheral blood was collected 3-4 days before the start of treatment and at day 4, 7, and 11. PhZ treatment experiments were carried out in 8-12 week old mice.
as §3

In data set [8] the test system is Il22ra1f/fEporcre mice. Nature of the data set: recombinant IL-22 administration to Il22ra1f/fEporcre mice subsequently treated with PhZ. The class given is in vivo, mouse. To be noted: mice lacking the IL-22 receptor only on erythroid cells. The protocol:
as §5, §3

The test system of data set [9] is wild-type C57BL/6J mice. Nature of the data set: recombinant IL-22 administration to wt C57BL/6J mice subsequently treated with PhZ. The format is in vivo, mouse. Conditions: for apoptosis of erythroid progenitors/precursors: in vivo. The protocol:
as §4, §1, §2, §5, §3

The mark [10] stands for this setting: Riok2 sufficient (Riok2+/+Vav1cre) mice, PhZ-induced anemia, vs isotype.
[11] abbreviates: wt C57BL/6J mice undergoing PhZ-induced anemia, vs isotype.

“Also recorded” adds a separate entry of the source. Read-outs that look alike come from different tables or passages of the source.

Turning to `CC(C)n1cnc2c(NCCc3ccc(O)cc3)nc(-c3csc4ccccc34)nc21` [Stemregenin 1], the “increase in erythroid colonies” value in [1] (SR1-pretreated CD34+ cells vs untreated cells) was 129 fold. In addition, the “pluripotency of human CD34+ stem cells” value in [1] is given as “maintain”. Further, in data set [1] (highest fold expansion seen in the erythroid lineage), the “ex vivo expansion of human HSCs” value was “promote”.

As for `Nc1cccc2c1CN(C1CCC(=O)NC1=O)C2=O` (centres unmarked) [lenalidomide], the extension of survival in data set [2] (HR-MDS group) is 4-6 months; in data set [2] (LR-MDS patients), 14-17 months.

Take `COc1ccc(C2=N[C@@H](c3ccc(Cl)cc3)[C@@H](c3ccc(Cl)cc3)N2C(=O)N2CCNC(=O)C2)c(OC(C)C)c1` [nutlin-3]: in data set [3], the cell viability entry is “did not decrease” and the “secreted IL-22” value is given as “increased”.

With `N=c1sc2c(n1CC(=O)c1ccc([N+](=O)[O-])cc1)CCCC2` [pifithrin-α, p-nitro], in data set [3], the “secreted IL-22” value is on record as “decreased”. For the same molecule, the cell viability entry in [3] (viable cells by flow cytometry) is “did not decrease”. Further, in data set [4] (IL-22-free assay, pifithrin-α, p-nitro 1 μM, Lin- BM cells from Riok2f/+Vav1cre mice), the “apoptosis induced by Riok2 haploinsufficiency” value is reported as “inhibited”.

As for “anti-IL-22 (Clone IL22JOP): Monoclonal anti-IL-22 blocking antibody purchased from Thermo Fisher Scientific; used in Examples 2-16”, the “neutralization of IL-22” value in [5] is given as “effectively neutralize”. In addition, the HCT entry in [6] is listed as “did not differ”; in data set [7] (Riok2f/+Vav1cre mice, PhZ-induced anemia, vs isotype) it was “anti-anemic effect; also recorded: increase”; in data set [7] (setting [10]) it was “anti-anemic effect; also recorded: increase”; in [7] (setting [11]), “significantly increased”. In addition, the results for the Hb result in data set [6] and in data set [7] (setting [11]) were “did not differ” and “significantly increased”, respectively. The “PB RBCs” value in [6] is recorded as “did not differ”; in data set [7] (Riok2f/+Vav1cre mice, PhZ-induced anemia, anti-IL-22 50 μg/mouse i.p. every 48 h vs isotype) it was “anti-anemic effect; also recorded: increase”; in [7] (setting [10]), “anti-anemic effect; also recorded: increase”; in data set [7] (setting [11]), “increases; also recorded: significantly increased; also recorded: faster”. Moreover, the “frequency of apoptotic erythroid progenitors/precursors” value in data set [7] (Riok2f/+Vav1cre mice, PhZ) is on record as “reduced”; in data set [7] (Riok2 sufficient mice, PhZ), “reduced”. For the same molecule, the anemia result in [7] (Riok2 haploinsufficient (Riok2f/+Vav1cre) mice, vs isotype) is reported as “partially reversed; also recorded: alleviated”; in data set [7] (wild-type mice undergoing PhZ-induced stress erythropoiesis) it was “alleviated”. For the same molecule, in data set [7] (Riok2 sufficient (Riok2+/+Vav1cre) mice), the phenylhydrazine-induced anemia entry was “reversed”. Further, the “frequency of RIII and RIV erythroid precursors in the BM” value in data set [7] (wt C57BL/6J mice, PhZ, vs isotype) was “increased”.

etanercept: in data set [2] (human, in vivo), the “efficacy in MDS patients” value is reported as “ineffective”.

B1: rIL-22: recombinant IL-22 (PeproTech / Cell Signaling) (protein, UniProt Q9JJY9 34-179, looked up)
Interleukin-22: T1 sequence (Q9JJY9 34-179)
Regarding B1, the phenylhydrazine-induced anemia result in data set [8] was “failed to exacerbate”. Further, the p53 expression result in [4] is given as “upregulation”. In addition, the p53 expression result in data set [4] (listed as recombinant IL-22) is recorded as “induction”. The terminal erythropoiesis entry in [4] (recombinant IL-22, dose response) is given as “dose-dependently decreased”. In data set [9] (7 days after PhZ, vs PBS), the “BM erythroid progenitor/precursor cells (frequency and number)” value is “decreased”. In addition, the “PB RBCs” value in [9] (rIL-22 500 ng/mouse i.p. every 24 h, then PhZ, vs PBS) is recorded as “decreased”. For the same molecule, in data set [9] (rIL-22 i.p., PhZ), the BM reticulocytes entry is “increase”, the PB reticulocytes entry is on record as “increase” and the “apoptosis of erythroid progenitors/precursors” value is “increased; also recorded: induced”. The “apoptosis of erythroid progenitors/precursors” value in data set [9] (rIL-22 i.p., PhZ, listed as recombinant IL-22) is on record as “increase”. Also, in [9] (rIL-22 i.p., then PhZ, vs PBS), the HCT result is “decreased” and the Hb result is listed as “decreased”. For the same molecule, the “PhZ-induced (stress-induced) anemia” value in [9] (wt mice) was “exacerbates”.

Values taken from patent publication US12454572B2, “Methods of treating anemia in myelodysplastic syndromes” (Dana-Farber Cancer Institute, Inc., priority 2021, dated 2025).
